Values joined by “and” are separate entries in the source; they are usually repeats but may differ in a detail not shown here. Identical values can stand only once. * marks the point of attachment. Mercaptoacetyl = O=C(CS)*; Bz = O=C(c1ccccc1)*
Assay: Cysteine challenge stability of ^99mTc chelator peptides
Format: physicochemical
Procedure: For the ^99mTc radiolabeling, a peptide as the TFA salt was dissolved in saline at 1 mg/mL and 100 μg (100 μL) was added to a ^99mTc placebo vial. The vial was reconstituted with 0.9 mL technetium ^99mTc sodium pertechnetate containing approximately 20 mCi and saline such that the final preparation volume was 1.1 mL. The vial was heated in a boiling water bath for 10 minutes and cooled at room temperature for 10 minutes.
The radiochemical purity (RCP) of the ^99mTc or ^188Re peptides was measured by gradient reversed phase HPLC using a Eurosphere-100 C18 HPLC column and 0.1% TFA mobile phases moderated with acetonitrile. Radioactive components were detected in the HPLC system using an in-line radiometric detector. Under the gradient conditions employed radiolabeled impurities (for example: ^99mTc glucoheptonate, ^99mTc edetate, and ^99mTc pertechnetate) eluted early (between 1 and 4 minutes), while the radiolabeled peptides eluted much later (between 8 and 20 minutes). In general, two isomeric radiometal complexes were observed, and the HPLC RCP was measured as the sum of the percent areas of the peaks corresponding to the two complexes. Radiochemical purity results for each of compounds are summarized in the examples that follow.
To ^99mTc radiolabelled peptide preparations described in Example 3 was added 150 μg of cysteine (approximately a 7-fold molar excess over peptide), and the preparations were stored at room temperature and monitored by HPLC for up to 12 hours. The amount of ^99mTc cysteine formed over time was noted. The initial HPLC analysis was started within 5 minutes of adding cysteine. In all cysteine challenge studies, a chelator compound containing a stabilizing sidechain was screened vs. the corresponding control chelator compound containing no sidechain. The relative amount of ^99mTc cysteine formed over time correlates inversely with the stability of the chelator (ie. less ^99mTc cysteine indicates higher chelator stability).
Several model chelator peptides were prepared with an N^1—N^2-Cys (N^1, N^2=independently any amino acid) amino acid sequence capable of complexing technetium as a triamide thiol chelator. Various stabilizing sidechains were substituted into the N^1—N^2-Cys chelator in two positions R1 and R2 as depicted in FIG. 4. The compounds were screened in the cysteine challenge experiment described in Example 4. Several experiments were conducted where 1-2 chelators were compared directly to a control chelator containing no stabilizing sidechain (compound GoC1 was also analyzed alone in a further study). Results in Table 5 represent % Peptide complexed to ^99mTc (ie. 100%−the amount of ^99mTc cysteine) vs. time.
Several model chelator peptides were prepared with an (β)Dap-N^2-Cys (N^2=any amino acid) amino acid sequence capable of complexing technetium as an amine diamide thiol chelator. This chelator is the chelator in the somatostatin peptides that were evaluated in Examples 5 and 6. Various stabilizing sidechains were substituted into the (β)Dap-N^2-Cys chelator in two positions R3 and R4 as depicted in FIG. 5. The compounds were screened in the cysteine challenge experiment described in Example 4. Several experiments were conducted where 1-2 chelators were compared directly to a control chelator containing no stabilizing sidechain. Results in Table 6 are the same as described in Example 7.
Two model chelator peptides were prepared with a ma-N^1—N^2 (Ma=mercaptoacetyl; N^1, N^2=independently any amino acid) amino acid sequence capable of complexing technetium as a triamide thiol chelator. This chelator has the thiol donor group at the N-terminus of the peptide. A stabilizing sidechain was substituted into the ma-N^1—N^2 chelator in position R5 as depicted in FIG. 6. The compounds were radiolabeled according to Example 3 with the exception that additional NaOH was added to bring the pH of the preparation up to pH 8.5. […]

[1] = (β)Dap-N2-Cys amine diamide thiol chelators, cysteine challenge
[2] = (β)Dap-N2-Cys amine diamide thiol chelators, cysteine challenge, Initial
[3] = N1-N2-Cys triamide thiol chelators, 150 μg cysteine, room temperature, Initial (within 5 minutes)
[4] = N1-N2-Cys triamide thiol chelators, cysteine challenge
[5] = (β)Dap-N2-Cys amine diamide thiol chelators, cysteine challenge, listed as Dap.GC
[6] = Ma-N1-N2 triamide thiol chelators, preparation pH 8.5, cysteine challenge
[7] = Ma-N1-N2 triamide thiol chelators, preparation pH 8.5, cysteine challenge, Initial

Substance	% Peptide Complexed to ^99mTc Initial [3]	% Peptide Complexed to ^99mTc 2 h [4]	% Peptide Complexed to ^99mTc 4 h [4]	% Peptide Complexed to ^99mTc 6 h [4]	% Peptide Complexed to ^99mTc 8 h [4]	% Peptide Complexed to ^99mTc 10 h [4]	% Peptide Complexed to ^99mTc 12 h [4]	other results
Ac-Tyr-Gly-(β)Dap(COCH2CH2NH2)-Gly-Cys-Ala.amide [Dap-Y.GC]	–	–	–	–	–	–	–	% Peptide Complexed to ^99mTc 2 h [1]: 84.6%; % Peptide Complexed to ^99mTc 4 h [1]: 84.1%; % Peptide Complexed to ^99mTc 6 h [1]: 82.9%; % Peptide Complexed to ^99mTc 8 h [1]: 80.7%; % Peptide Complexed to ^99mTc 10 h [1]: 80.0%; % Peptide Complexed to ^99mTc 12 h [1]: 77.2%; % Peptide Complexed to ^99mTc Initial [2]: 93.7%
Ac-Tyr-Gly-(β)Dap-Gly-Cys-Ala.amide [Dap.GC2]	–	–	–	–	–	–	–	% Peptide Complexed to ^99mTc 2 h [1]: 67.7%; % Peptide Complexed to ^99mTc 4 h [1]: 55.1%; % Peptide Complexed to ^99mTc 6 h [1]: 49.6%; % Peptide Complexed to ^99mTc 8 h [1]: 44.7%; % Peptide Complexed to ^99mTc 10 h [1]: 38.0%; % Peptide Complexed to ^99mTc 12 h [1]: 38.7%; % Peptide Complexed to ^99mTc Initial [2]: 83.4%
Ac-Tyr-Gly-Gln-Gly-Cys-Ala.amide (Ac-YGQGCA-NH2)	92.9% and 96.3%	88.7% and 88.3%	88.8% and 86.1%	86.6% and 84.0%	85.6% and 82.0%	83.8% and 77.6%	84.2% and 75.9%	–
Ac-Tyr-Gly-Glu-Gly-Cys-Ala.amide (Ac-YGEGCA-NH2)	91.4%	84.1%	78.1%	73.3%	67.4%	60.1%	–	–
Ac-Tyr-Gly-Gly-(D)Orn-Cys-Ala.amide [GoC2]	94.3%	91.1%	89.1%	89.2%	89.0%	87.2%	86.9%	–
Ac-Tyr-Gly-Gly-Gly-Cys-Ala.amide (Ac-YGGGCA-NH2) [GGC2, control chelator, no stabilizing sidechain]	90.1% and 92.0% and 95.7% and 93.6%	70.7% and 80.7% and 79.3% and 81.0% and 77.8%	61.8% and 72.0% and 70.5% and 73.3% and 67.5%	57.1% and 65.7% and 65.6% and 61.0% and 60.4%	46.2% and 61.0% and 57.8% and 53.0% and 54.7%	39.1% and 59.0% and 55.1% and 48.0% and 50.2%	33.3% and 57.2% and 44.5% and 41.2% and 46.6%	–
Ac-Tyr-Gly-Gly-His-Cys-Ala.amide (Ac-YGGHCA-NH2)	78.8%	74.3%	72.9%	70.9%	68.8%	69.2%	67.9%	–
Ac-Tyr-Gly-Gly-Orn-Cys-Ala.amide [GOC]	98.2%	93.8%	90.0%	86.1%	80.0%	78.1%	88.6%	–
Ac-Tyr-Gly-Met-Gly-Cys-Ala.amide (Ac-YGMGCA-NH2)	93.9%	92.4%	89.3%	85.9%	82.0%	79.9%	77.2%	–
Bz-Gly-(β)Dap-Gly-Cys-Ala.amide [Dap.GC1]	–	–	–	–	–	–	–	% Peptide Complexed to ^99mTc 2 h [1]: 78.1%; % Peptide Complexed to ^99mTc 2 h [5]: 78.9%; % Peptide Complexed to ^99mTc 4 h [1]: 62.7%; % Peptide Complexed to ^99mTc 4 h [5]: 42.6%; % Peptide Complexed to ^99mTc 6 h [1]: 57.8%; % Peptide Complexed to ^99mTc 6 h [5]: 51.6%; % Peptide Complexed to ^99mTc 8 h [1]: 51.9%; % Peptide Complexed to ^99mTc 8 h [5]: 46.3%; % Peptide Complexed to ^99mTc 10 h [1]: 46.2%; % Peptide Complexed to ^99mTc 12 h [1]: 43.3%; % Peptide Complexed to ^99mTc 12 h [5]: 37.6%; % Peptide Complexed to ^99mTc Initial [2]: 81.7%
Bz-Gly-(β)Dap-Met-Cys-Ala.amide [Dap.MC]	–	–	–	–	–	–	–	% Peptide Complexed to ^99mTc 2 h [1]: 95.4%; % Peptide Complexed to ^99mTc 4 h [1]: 89.8%; % Peptide Complexed to ^99mTc 6 h [1]: 92.6%; % Peptide Complexed to ^99mTc 8 h [1]: 91.6%; % Peptide Complexed to ^99mTc 10 h [1]: 88.4%; % Peptide Complexed to ^99mTc 12 h [1]: 89.7%; % Peptide Complexed to ^99mTc Initial [2]: 97.4%
Bz-Gly-Gly-Gln-Cys-Ala.amide (Bz-GGQCA-NH2; SMILES C[C@H](NC(=O)[C@H](CS)NC(=O)[C@H](CCC(N)=O)NC(=O)CNC(=O)CNC(=O)c1ccccc1)C(N)=O)	97.8%	93.2%	88.7%	82.4%	80.1%	78.7%	73.5%	–
Bz-Gly-Gly-Met-Cys-Ala.amide (Bz-GGMCA-NH2; SMILES CSCC[C@H](NC(=O)CNC(=O)CNC(=O)c1ccccc1)C(=O)N[C@@H](CS)C(=O)N[C@@H](C)C(N)=O)	96.9%	92.6%	88.6%	83.7%	82.7%	78.6%	77.2%	–
Ma-(D)Orn-Gly-Tyr-Ala.amide [Ma.oC]	–	–	–	–	–	–	–	% Peptide Complexed to ^99mTc 2 h [6]: 87.4%; % Peptide Complexed to ^99mTc 4 h [6]: 87.2%; % Peptide Complexed to ^99mTc 6 h [6]: 84.9%; % Peptide Complexed to ^99mTc 8 h [6]: 85.9%; % Peptide Complexed to ^99mTc 10 h [6]: 84.1%; % Peptide Complexed to ^99mTc 12 h [6]: 82.7%; % Peptide Complexed to ^99mTc Initial [7]: 100%
Ma-Gly-Gly-Tyr-Ala.amide (Mercaptoacetyl-GGYA-NH2; SMILES C[C@H](NC(=O)[C@H](Cc1ccc(O)cc1)NC(=O)CNC(=O)CNC(=O)CS)C(N)=O) [Ma.GG, control chelator, no stabilizing sidechain]	–	–	–	–	–	–	–	% Peptide Complexed to ^99mTc 2 h [6]: 91.3%; % Peptide Complexed to ^99mTc 4 h [6]: 75.7%; % Peptide Complexed to ^99mTc 6 h [6]: 61.2%; % Peptide Complexed to ^99mTc 8 h [6]: 48.7%; % Peptide Complexed to ^99mTc 10 h [6]: 42.2%; % Peptide Complexed to ^99mTc 12 h [6]: 32.7%; % Peptide Complexed to ^99mTc Initial [7]: 100%
